Test [1] concerns the target T1, canine PD-1 expressed on CHO cells (canine).
T1 construct: CHO DXB11 cells transfected with plasmid p96793; also called cPD-1 CHO cells; CHO cell line expressing canine PD-1
T1 chain: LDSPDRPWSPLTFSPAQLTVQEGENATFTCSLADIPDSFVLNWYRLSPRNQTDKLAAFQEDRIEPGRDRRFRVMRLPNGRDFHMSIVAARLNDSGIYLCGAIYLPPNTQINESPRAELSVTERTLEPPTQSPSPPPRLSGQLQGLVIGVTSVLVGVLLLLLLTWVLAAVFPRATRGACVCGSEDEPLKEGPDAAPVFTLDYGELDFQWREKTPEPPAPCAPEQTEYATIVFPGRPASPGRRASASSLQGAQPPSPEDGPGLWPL
In words: CELISA on CHO cells expressing canine PD-1, mAb diluted from 30 ug/mL (x axis: log of dilution), HRP goat anti-mouse, TMB.

In test [2] the target is T2, HIS-tagged extracellular domain of canine PD-1.
T2 construct: also called canine PD-1 ECD-8HIS; PD-1ECD-HIS
T2 chain: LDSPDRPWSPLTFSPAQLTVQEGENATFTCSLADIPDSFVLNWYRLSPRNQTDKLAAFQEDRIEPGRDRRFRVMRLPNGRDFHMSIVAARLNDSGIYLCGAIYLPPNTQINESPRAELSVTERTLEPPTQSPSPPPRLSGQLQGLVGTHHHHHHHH
In words: ELISA on plate-coated HIS-tagged canine PD-1 ECD, two-fold dilutions of mAb, HRP goat anti-mouse IgG, TMB. How it is done:
Purified anti-canine PD-1 mAbs were tested for reactivity with the HIS-tagged ECD domain of canine PD-1 by ELISA as follows: HIS-tagged canine PD-1 ECD protein is diluted to 10 μg/mL in coating buffer (Carbonate/Bicarbonate pH 9.0) and dispensed at 100 μl/well in 96-well flat bottomed ELISA plates (NUNC). The plates are incubated at 4° C. overnight. The plates are then washed three times with phosphate buffered saline containing 0.05% Tween-20 (PBST). Next, 200 μl of blocking buffer (5% skim milk in PBST) is added to each well and the plates are incubated at 37° C. for 60 minutes. The plates are then washed three times with PBST. Next, 100 μl of test mAbs diluted in blocking buffer is added to the first wells of the appropriate columns. Test mAbs are then diluted two-fold to the appropriate plate position. Following incubation of the plates at 37° C. for 60 minutes, the plates are washed three times with PBST. Next, 100 μl per well of a 1:2,000 dilution of a horseradish peroxidase conjugated goat anti-mouse IgG (KPL) is added to the plates, which are then incubated at 37° C. for 60 minutes. Then the plates are washed three times with PBST, and 100 μl/well of 3,3′,5,5′ tetramethyl benzidine, (TMB) substrate (from KPL) is added to the plates. The color reaction is allowed to develop for 5-20 minutes at 37° C. prior to measuring absorbance at 650 nm.
A general note: ELISA stands for enzyme-linked immunosorbent assay.

Test [3] has as its target T1, canine PD-1 expressed on CHO cells. The experiment in a line: ligand blockade CELISA: mAb diluted from 30 ug/mL on CHO cells expressing canine PD-1, then cPD-L1-Fc-biotin, streptavidin-HRP; the signal is bound PD-L1. As for the experimental part: (§1) A cell-based ELISA (CELISA) assay based on the CHO cell line expressing canine PD-1 was used for mouse mAbs which react with canine PD-1 (cPD-1). Ligand blockade was confirmed using this assay in conjunction with biotinylated cPD-L1/Fc protein. Briefly, seed cPD-1 CHO cells were placed in 96-well plates at 4×10⁴ cells per well and the cells were incubated at 37° C. for 18-24 hours till they are 95-100% confluent. The cell culture media was aspirated off, and the plates were washed 3× with PBS+0.05% Tween20 and 1×CHO media. Three-fold serial dilutions were made of anti-cPD1 mAbs in CHO media, starting at 30 μg/mL, and 50 μL/well of each antibody dilution were added down the plate. The incubation was performed at 37° C., 5% CO₂ with shaking for 30 min. 50 μL/well of cPD-L1-Fc-biotin (2 μg/ml in CHO media stock) was added and the incubation at 37° C., 5% CO₂ was continued with shaking for 45 min. The plates were washed 6 times with PBS+0.05% Tween 20. 100 ul/well of Streptavidin-HRP (1:2000) in CHO media was added followed by a incubation for 30-60 min at 37° C./5% CO₂. The plates were washed 5 times with PBS+0.05% Tween20 and then 100 μl/well of TMB color developing substrate was added. The color development was stopped by adding 50 μl/well of 1M phosphoric acid. The optical density (O.D.) at A450-A620 was measured using an ELISA plate reader.

Test [4] shares this target. In words: ligand blockade CELISA: mAb diluted from 54.8 µg/mL on CHO cells expressing canine PD-1, then cPD-L1-Fc-biotin, streptavidin-HRP; the signal is bound PD-L1. As for the experimental part:
as §1

The target of test [5] is T3, canine PD-1 antigen peptide GRDRRFRVM*RLPNGR (SEQ ID NO: 84) (canine).
T3 construct: The starred methionine has also been reported as a threonine
T3 peptide: GRDRRFRVMRLPNGR
The experiment in a line: ProImmune ProArray Ultra peptide microarray, fluorescent secondary antibody. How it is done:
This library of overlapping peptides was designed to cover the full length canine PD-1 protein. The determination of peptide-antibody binding was performed by attachment of antibody samples to the ProArray Ultra® peptide microarray, followed by incubation with a fluorescent-labelled secondary antibody. All peptides are synthesized separately, and then bound to the ProArray Ultra® slide surface alongside ProImmune® murine IgG controls. This optimized process ensures that peptides are presented on the array in such a manner as to closely mimic the properties of the corresponding protein region, circumventing the inherent physiochemical variation of the free peptides themselves and making a compatible, combined peptide and protein array platform. […] After several washing steps, the ProArray Ultra® arrays were dried and scanned using a high-resolution fluorescence microarray scanning system. After scanning the fluorescent labelled ProArray Ultra® slides, the scanner recorded an image which was evaluated using image analysis software—enabling interpretation and quantification of the levels of fluorescent intensities associated with each fluorescent spot on the scanned microarray slide. The results of this experiment indicated some of the canine PD-1 peptides were recognized by some of the mAbs evaluated.

The target in test [6] is T1, canine PD-1 expressed on CHO cells. In words: ligand blockade CELISA: mAb diluted from 23.2 µg/mL on CHO cells expressing canine PD-1, then cPD-L1-Fc-biotin, streptavidin-HRP; the signal is bound PD-L1. As for the experimental part:
as §1

B1: mAb 1B5 (mouse anti-canine PD-1 monoclonal antibody) (antibody, V domains shown)
VH: QIQLVQSGPELKKPGETVKISCKASGYTFTTYGMSWVKQAPGKGLKWMGWINIYSGIPTYADDFKGRFAFSLETSASTAYLQIDNLKNEDTATYFCARFDGPDYWGQGTTLTVSP
VL: DIVMTQSPSSLAMSVGQKVTMSCKSSQSLLNSVNQKNYLAWYQQKPGQSPKVLVYFASTRVSGVPDRFIGSGSGTDFTLTITSVQAEDLTTYLCQQYFSTPLTFGAGTKLEIK
notes: Mouse mAb; also called IBS
As to B1, the binding result in test [1] is reported as “binds”.

B2: Murine 3B6 (mouse anti-canine PD-1 monoclonal antibody) (antibody, V domains shown)
VH: QIQLVQSGPELKKPGETVKISCKASGYTFTTYGMSWVKQAPGKGLKWMGWINIYSGIPTYADDFKGRFAFSLETSASTAYLQIDNLKNEDTATYFCARFDGPDYWGQGTTLTVSS
VL: DIVMTQSPSSLAVSVGRKVTMSCKSSQSLLNSVNQKNYLAWYQQKPGQSPKVLVYFASARVSGVPDRFIGSGSGTDFTLAISSVQAEDLTTYFCQQYFSTPLTFGAGTKLELK
notes: Mouse hybridoma mAb; also called mAb 3B6
As to B2, the binding result in test [2] and in test [1] was “binds” each time.

B3: 4D12 (antibody, V domains shown)
VH: QIQLVQSGPELKKPGETVKISCKASGYTFTTYGMSWVKQAPGKGLKWMGWINIYSGMPTYADDFKGRFAFSLETSVSTAYLQINNLKNEDTATYFCARFDGPDYWGQGTTLTVSS
VL: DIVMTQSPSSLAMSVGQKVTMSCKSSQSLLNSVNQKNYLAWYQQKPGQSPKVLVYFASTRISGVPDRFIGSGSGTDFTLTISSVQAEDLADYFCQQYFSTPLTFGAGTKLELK
notes: Mouse anti-canine PD-1 mAb; also called mAb 4D12; copies: 2 + 2
For the molecule B3, the binding result in test [2] and in test [3] was “binds” each time.

B4: mAb 2G9 (mouse anti-canine PD-1 monoclonal antibody) (antibody, V domains shown)
VH: QAYLQQSGAELVRPGASVKISCKASGYTFTRYNMHWVKQTPRQGLEWIGTIYPGYGDTSYNQKFKGKATLTVDISSSTAYMQLTSLTSEDSAVYFCSREFADDYPIPPFDYWGQGTTLTVSS
VL: DVLMTQTPLSLPVSLGDQASISCRSSQNIVHSNGNTYLEWYLQKPGQSPKLLIYKVSNRFSGVPDRFSGSGSGTDFTLKISRVEAEDLGIYYCFQGSHVPYTFGGGTKLEIK
notes: Mouse hybridoma mAb
Regarding B4, the binding result in test [2] and in test [4] was “binds” each time.

B5: 5G5 (antibody, V domains shown)
VH: EVQLQQSVAELVRPGASVKLSCTVSGFNIKNTYMHWVKQRPEQGLEWIGRIDPANVNTKYAPKFQGKATITTDTSSNTAYMQLSSLTSEDTAIYYCVLIFYDYDGDIDVWGTGTKVTVSS
VL: DIQMNQSPSSLSASLGDTITITCHASQNINVWLSWYQQKPGNIPKLLIYKASNLHTGVPSRFSGSGSGTDFTLTISSLQPEDIATYYCQQGQSYPLTFGAGTKLELK
notes: Mouse anti-canine PD-1 mAb; also called mAb 5G5; copies: 2 + 2
Consider B5, for which the binding result in test [2] is given as “binds”.

B6: Murine 2H9 (mouse anti-canine PD-1 monoclonal antibody) (antibody, V domains shown)
VH: EVQLQQSVAELVRPGASVKLSCTASGFNIKNTYMHWIKQRPEQGLEWIGRIAPANVDTKYAPKFQGKATITADTSSNTAYMQLSTLTSEDTAIYYCVLIYYDYDGDIDVWGTGTTVTVSS
VL: DIQMNQSPSSLSASLGDTITITCHASQNINVWLSWYQQRPGNIPKLLIYKASHLHTGVPSRFSGSGSGTGFTLTISSLQPEDIATYYCQQGQSWPLTFGAGTKLELK
notes: Mouse hybridoma mAb purified on Protein G; also called mAb 2H9
With B6, the binding result in test [2], in test [5] and in test [6] was “binds” each time.

These data come from patent US20240084004A1 (INTERVET, published 2024).
